Assay results reported in patent US20210324374.
pKd: −log10 of the molar value.

Target: Insulin (UniProt P01308+P01308)
Test: flow
Conditions: dT replaced by C8-alkyne-dU clicked with phenylalanine azide (positions incorporated by polymerase); bead-based assay, buffer

Sequence of Insulin (P01308 25-54, chain 1 of 2): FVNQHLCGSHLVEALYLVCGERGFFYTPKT
Sequence of Insulin (P01308 90-110, chain 2 of 2): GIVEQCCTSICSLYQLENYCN

Sequence: GCGCATACCAGCTTATTCAATCGTCGAGAACTCCTCCGGCTCTAACTCCGATTATAGCCAAAGATAGTAAGTGCAATCTCGGC [Ins24]
- pKd: 5.59
